Experimental data from PMC3236736, “Jamb and Jamc Are Essential for Vertebrate Myocyte Fusion” (PLoS Biology, 2011).

B1: Jamb extracellular domain fused to rat Cd4 domains 3 and 4 (Jamb-Cd4d3+4-6H; Jamb-Cd4d3+4-bio) (domain or fragment, zebrafish, UniProt A0A0R4IGV4 19-226, looked up)
chain: VTVSSRNPKVEVHEFSDAELSCEFKTEKDTNPRIEWKRKDKEKDVSFVYYGERFVGPFQDRADIEGATVRLRRVTQADAGEYRCEVSAPSDSISLGETNVTLRVLVPPQTPSCDVPSSALTGSQVELRCRDRHSIPPAVYTWYKDNRALPIRHPNATYTVNEFTGVLIPQSHYNPGTVCQHCMYHPNYHIPNTQLTTTFQTHDLNVAA
notes: Jamb (official symbol jam2a), zebrafish, Entrez Gene 100005261; Two forms with the same ectodomain were made; They are written as one molecule because the protein stood against itself in the homophilic test; also called Jam2a; zebrafish JAM-B orthologue; source: expressed as a soluble fusion protein, purified; not shown: rat Cd4 domains 3 and 4, C-terminal, kept; His6, C-terminal, kept
B2: Jamc extracellular domain fused to rat Cd4 domains 3 and 4 (Jamc-Cd4d3+4-6H; Jamc-Cd4d3+4-bio) (domain or fragment, zebrafish, UniProt A3KPA0 24-235, looked up)
chain: VLLKSTNSKPWVNEFESIELSCMIESITTTKPRIEWKKIKNGDPSYVYFDNQISGDLERRAKIREPATLVILNATRSDSADYRCEVTAPNDQKSFDEILISLTVRVKPVVPRCSVPKSIPVGKPAELHCLEDEGYPKSQYQWFRNKEEIPLDPKSSPKFFNSTYTLDGEMGTLKFSAVRKEDAGEYYCRAKNEAGISECGPQMMEVYDINIA
notes: Jamc (official symbol jam3b), zebrafish, Entrez Gene 569217; Two forms with the same ectodomain were made; They are written as one molecule because the protein stood against itself in the homophilic test; also called Jam3b; zebrafish JAM-C orthologue; source: expressed as a soluble fusion protein, purified; not shown: rat Cd4 domains 3 and 4, C-terminal, kept; His6, C-terminal, kept

Assays:
[1] = molecular target: B2; assay: SPR; equilibrium binding analysis with soluble recombinant extracellular domains; Jamc analyte; essentially as in ref. 33; conditions: both partners purified
[2] = molecular target: B1; assay: SPR; dissociation phase averaged over three concentrations of purified Jamc-Cd4d3+4-6H or Jamb-Cd4d3+4-6H analyte, fitted to a first-order decay; homophilic and heterophilic interactions; conditions: both partners purified

| Kd [1] [µM] | stoichiometry N [2] | Binder |
| --- | --- | --- |
| ~4.7 | – | B1 |
| – | 1 | B2 |
